We go through six molecules from patent US20170081400A1 (CEPHALON, published 2017).

For test [1], the target named is membrane TL1A on human PBMCs (human) (UniProt O95150). Nature of the test: flow cytometry on human PBMCs, antibody staining against CD14 [left plot]. (A flow cytometer gives signals particle by particle.)
The target of test [2] is T1, human TL1A extracellular domain with N-terminal HIS and FLAG tag (human) (UniProt O95150).
T1 sequence: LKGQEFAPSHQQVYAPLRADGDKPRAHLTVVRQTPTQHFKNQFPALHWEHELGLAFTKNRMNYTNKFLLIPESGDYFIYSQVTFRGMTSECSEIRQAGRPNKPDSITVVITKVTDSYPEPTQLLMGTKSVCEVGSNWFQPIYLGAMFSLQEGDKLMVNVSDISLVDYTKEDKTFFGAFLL
Nature of the test: SPR Run 6, purified Ab captured on Protein A, TL1A 5 ug/mL, timepoint 44.

In test [3] the target is T1, human TL1A extracellular domain with N-terminal HIS and FLAG tag (human). Nature of the test: SPR Run 6, purified Ab captured on Protein A, TL1A 5 ug/mL, timepoint 170.
The target in test [4] is T2, single-site biotinylated human TL1A (human, UniProt O95150 72-251, single-site biotinylated (site not stated)).
T2 construct: construct used for biotinylation not described
T2 sequence: T1 sequence
Nature of the test: competition ELISA: antibody dilutions pre-incubated with biotinylated human TL1A (1 µg/ml), added to plate-coated DR3/Fc; bound TL1A detected with streptavidin-HRP; blocked partner DR3/Fc [top panel]. How it is done:
(§1) 1.8. […] DR3/Fc Chimera (R&D Systems) or DcR3/Fc Chimera (R&D Systems) was coated onto a 96-well plate (Maxisorp, Nunc) at a concentration of 2 μg/ml.
For orientation: In an ELISA, binding on a coated surface is turned into a signal by an enzyme label.

Test [5] deals with T2, single-site biotinylated human TL1A. In words: competition ELISA: antibody dilutions pre-incubated with biotinylated human TL1A (1 µg/ml), added to plate-coated DcR3/Fc; bound TL1A detected with streptavidin-HRP; blocked partner DcR3/Fc [bottom panel]. How it is done:
as §1

Where a chain is given by its changes, count along the chain named.

In test [1], Isotype control (antibody) registered a number in the upper left quadrant (antibody-positive, CD14-negative cells) of 0.51 and a number in the upper right quadrant (antibody-positive, CD14-positive cells) of 0.07.

B1: 320-457 (antibody, human IgG1, name in Kabat numbering, V domains shown)
VH: QVQLVQSGAEVKKPGASVKVSCKASGYTFTSYDDNWVRQAPGQGLEWMGWLNPNSGNTGYAQKFQGRVTMTADRSTSTAYMELSSLRSEDTAVYYCAREVPETAAFEYWGQGTLVTVSS
VL: QSVLTQPPSVSGAPGQRVTISCTSSSSDIGAGLGVHWYQQLPGTAPKLLIEGYYNRPSGVPDRFSGSKSGTSASLTITGLLPEDEGDYYCQSYDGTLSALFGGGTKLTVLG
In the case of B1, in test [2], the TL1A Binding Level (Early) worked out at 6 RU. In test [3], this molecule yielded a TL1A Binding Level (Late) of 4 RU.

B2: 320-331 (antibody, human IgG1, name in Kabat numbering, V domains shown)
VH: B1 VH with D34I
VL: B1 VL with Y93W
notes: human IgG1, lambda
With B2, the “IC50 (read off the curve)” value in test [4] was roughly 0.08 µg/mL.

B3: 320-585 (antibody, human IgG1, name in Kabat numbering, V domains shown)
VH: B1 VH with D34I
VL: B1 VL with L33Q, Y93W
notes: human IgG1, lambda
In the case of B3, in test [5], the “IC50 (read off the curve)” value was roughly 2 µg/mL.

B4: 320-547 (antibody, human IgG1, name in Kabat numbering, V domains shown)
VH: B1 VH with D34I, N57Y
VL: B1 VL
notes: human IgG1, lambda
For B4, the “IC50 (read off the curve)” value in test [4] was roughly 0.07 µg/mL.

B5: 320-586 (antibody, human IgG1, name in Kabat numbering, V domains shown)
VH: B1 VH with D34I
VL: B1 VL with H36L, Y93W
notes: human IgG1, lambda
Regarding B5, in test [5], the “IC50 (read off the curve)” value was roughly 2 µg/mL.
